Source: the supplement of paper PMC10126150
± gives the standard deviation of the averaged measurements.

System: ATP
Assay: switch fluorescence ratio, 500 uM ATP over buffer (Cy3 cluster intensity, sum of 5 cycles each) (fold (ratio)); higher = stronger signal-on switching upon ATP binding; sequences stand for … in TCGTCGGCAGCGTCAGATGTGTATAAGAGACAGTTTTTTTTTTTTTTTTTTTTTTTTT…TC
Settings: aptamer strand: ATP DNA aptamer (quencher-CACCTGGGGGAGTATTGCGGAGGAAGG + anchor), 100 nM annealed; ATP concentration: 500 uM
How it was run: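 Clusters carrying Cy3-labelled switching strands on a modified Illumina MiSeq flow-cell were annealed to 100 nM quencher-labelled ATP aptamer and imaged in selection buffer. They were imaged again after 15 min with 500 uM ATP at 22 °C, over five buffer/ATP cycles with NaOH stripping and re-annealing in between. For each cluster, the fluorescence ratio is the summed Cy3 intensity of the target cycles divided by that of the buffer cycles, averaged per switch-domain sequence. Clusters outside 100-1000 RFU were left out.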
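Note: ATP exposure 15 min at 22 °C before imaging.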

Sequence | switch fluorescence ratio
TGGCGCACGG | 0.953 ± 0.017
TGGCGCATAA | 1.25 ± 0.059
TGGCGCCATT | 1 ± 0.072
TGGCGCCGGT | 0.995 ± 0.01
TGGCGGAACA | 1.02 ± 0.017
TGGCGGATAT | 1.06 ± 0.1
TGGCGGTTAG | 1.01 ± 0.019
TGGCGTCTGA | 1 ± 0.013
TGGCTAGGAC | 1.01 ± 0.04
TGGCTATTGT | 0.9824 ± 0.0044
TGGCTCTGAG | 0.9973 ± 0.0028
TGGCTGACTT | 1.01 ± 0.016
TGGCTGTGGG | 0.991 ± 0.016
TGGCTTAGGG | 0.98975 ± 0.00065
TGGCTTCGGC | 0.9979 ± 0.0053
TGGCTTGAGT | 1.12 ± 0.19
TGGCTTGCG | 1.01 ± 0.04
TGGGAAAAAT | 0.994 ± 0.04
TGGGAAAGTC | 0.993 ± 0.026
TGGGAAATAT | 0.9726 ± 0.0072
TGGGAAATT | 1.19 ± 0.19
TGGGAACGAT | 1.011 ± 0.0034

Sequence | switch fluorescence ratio
TGGGAAGAGG | 1.01 ± 0.026
TGGGAAGGCG | 0.983 ± 0.012
TGGGAAGGTG | 1.7 ± 0.33
TGGGAAGTCA | 0.991 ± 0.012
TGGGAAGTGT | 0.9621 ± 0.0013
TGGGAAGTTC | 1.04 ± 0.046
TGGGAAGTTT | 0.978 ± 0.013
TGGGAATTGG | 0.981 ± 0.012
TGGGACAGGC | 0.965 ± 0.089
TGGGACCGTC | 1.052 ± 0.0042
TGGGACGCCG | 1.01 ± 0.015
TGGGACGTTA | 1.04 ± 0.036
TGGGACGTTG | 0.995 ± 0.014
TGGGACTAGT | 1.02 ± 0.059
TGGGAGAAGG | 1.02 ± 0.057
TGGGAGAGCG | 0.973 ± 0.016
TGGGAGGTAC | 1.24 ± 0.3
TGGGAGGTTA | 0.965 ± 0.025
TGGGAGGTTT | 1.05 ± 0.18
TGGGAGTTAG | 0.943 ± 0.03
TGGGATAATG | 1.012 ± 0.0042
TGGGATACGA | 4.47 ± 0.82

Sequence | switch fluorescence ratio
TGGGATAGAT | 0.996 ± 0.027
TGGGATAGGC | 0.991 ± 0.032
TGGGATCGCC | 1.02 ± 0.028
TGGGATGATG | 1.008 ± 0.0095
TGGGATGCAA | 1.04 ± 0.035
TGGGATGCAT | 0.991 ± 0.034
TGGGATGTGG | 0.986 ± 0.019
TGGGATGTTC | 0.989 ± 0.031
TGGGATTATG | 0.976 ± 0.0098
TGGGATTTGG | 0.98432 ± 0.00062
TGGGATTTGT | 0.9881 ± 0.0029
TGGGCAACTC | 1.06 ± 0.021
TGGGCAAGTT | 1.04 ± 0.044
TGGGCCAGTT | 0.981 ± 0.035
TGGGCCCATT | 1.02 ± 0.076
TGGGCCGGGG | 0.989 ± 0.019
TGGGCCGGTG | 1.04 ± 0.05
TGGGCCGGTT | 1.05 ± 0.099
TGGGCCTATT | 0.976 ± 0.063
TGGGCCTCCA | 1 ± 0.036
TGGGCGAAGG | 0.9702 ± 0.0071
TGGGCGAGAG | 1.02 ± 0.034

Sequence | switch fluorescence ratio
TGGGCGCCGG | 1 ± 0.013
TGGGCGTGTG | 1.02 ± 0.017
TGGGCGTTCT | 1.03 ± 0.081
TGGGCTATAG | 1.03 ± 0.032
TGGGCTATGC | 0.986 ± 0.059
TGGGCTCCGG | 1 ± 0.031
TGGGGAAAAA | 1.07 ± 0.11
TGGGGAAACC | 2.35 ± 2.3
TGGGGAAGCG | 0.988 ± 0.011
TGGGGAATGT | 1.01 ± 0.042
TGGGGAATTT | 0.987 ± 0.023
TGGGGACACT | 1.02 ± 0.016
TGGGGACGCT | 0.9977 ± 0.004
TGGGGACGTG | 1.013 ± 0.0047
TGGGGACTTG | 0.9782 ± 0.0015
TGGGGAGGAG | 0.995 ± 0.017
TGGGGAGGCA | 0.97516 ± 0.00042
TGGGGAGGGA | 0.983 ± 0.033
TGGGGAGGGG | 0.991 ± 0.047
